The experiment concerns the target T1, NPVEDS peptide (LRC1 epitope, residues 286-291 of ASPH) (human).
T1 peptide: NPVEDS
Nature of the experiment: peptide inhibition (data not shown).

B1: LRC1 monoclonal antibody (antibody, V domains shown)
VH: EVQLVESGGGLVKPGGSLKFSCAASGFTFSRYAMPWVRQTPEKRLEWVATISSGGSYTYYPDSVKGRLTISRDNAKNTLYLQMSSLRSEDTAMYYCARQGNYYGSSHLYYAMDYWGQGTSVTVSS
VL: QLVLTQSSSASFSLGASAKLTCTLNSQHRAYTIEWYQQQPLKPPKYVMELKKDGSHSTGDGIPDRFSGSSSGADRYLSISNIQPEDEAIYICGVGDTIKEQFVYVFGGGTKVTVL
notes: also called LRC1 mAb; LRC1 antibody
B1: the binding result is “binds”.

Source of the values: US20250264470A1 (RHODE ISLAND HOSPITAL, published 2025).
